Experimental data taken from article PMC8648943.

Columns and labels:
[1] = target: Pf3 coat protein with single cysteine 47C, tethered by its C-terminal end to the AFM tip through a PEG27-linker (phage Pf3) (UniProt P03623); test: dynamic single-molecule force spectroscopy (DFS) by AFM; as a5, contact time 52 ms
[2] = target: Pf3 coat protein with single cysteine 47C, tethered by its C-terminal end to the AFM tip through a PEG27-linker (phage Pf3) (UniProt P03623); test: dynamic single-molecule force spectroscopy (DFS) by AFM; Pf3 tethered through PEG27 to the AFM tip, YidC in supported POPE:POPG membranes; contact time 2 ms; pulling velocities 1–25 µm s^–1; Bell-Evans fit, k0 = zero-force transition rate of the bond; room temperature
[3] = target: Pf3 coat protein with single cysteine 47C, tethered by its C-terminal end to the AFM tip through a PEG27-linker (phage Pf3) (UniProt P03623); test: FD-AFM-based single-molecule force spectroscopy; as a2, contact time 52 ms
[4] = target: Pf3 coat protein with single cysteine 47C, tethered by its C-terminal end to the AFM tip through a PEG27-linker (phage Pf3) (UniProt P03623); test: FD-AFM-based single-molecule force spectroscopy; Pf3 tethered through PEG27 to the AFM tip, YidC in supported POPE:POPG membranes on mica; contact time ≈2 ms; pulling velocity 3–4.5 µm s^–1; room temperature; 150 mM KCl, 20 mM HEPES, pH 7.4
[5] = target: Pf3 coat protein with single cysteine 47C, tethered by its C-terminal end to the AFM tip through a PEG27-linker (phage Pf3) (UniProt P03623); test: FD-AFM-based single-molecule force spectroscopy; as a2, contact time 502 ms
[6] = target: Pf3 coat protein with single cysteine 47C, tethered by its C-terminal end to the AFM tip through a PEG27-linker (phage Pf3) (UniProt P03623); test: AFM-based single-molecule force spectroscopy (height clamp mode); Pf3 tethered by its C-terminal end through a PEG27-linker to the AFM tip, held ≈5–10 nm above a supported POPE:POPG membrane with YidC for ≈1–2 s; force-time curves; lifetimes fitted with the Bell model; room temperature; 150 mM KCl, 20 mM HEPES, pH 7.4
[7] = target: Pf3-47C labelled with Atto520 (phage Pf3) (UniProt P03623); test: FRET or BRET; single-molecule FRET on a confocal FCS setup; proteoliposomes with 1 nM YidC S405C-Atto647N (acceptor) mixed with 1 nM Atto520-labelled Pf3-47C (donor); 300 mM NaCl, 20 mM Tris-HCl, pH 7.5; recorded for 360 s

Row | koff [2] | fraction of (un-)binding forces >50 pN [3] | mean (un-)binding force [3] | mean (un-)binding force [4] | Molecule | also measured
1 |  |  |  |  | wild-type (wt) YidC insertase from E. coli (from UniProt P25714 1-548) | koff [1]: 2 s⁻¹
2 | 0.03 s⁻¹ | 10.5% | 31.5 pN | 29.1 pN | R366E YidC mutant (from UniProt P25714 1-548) (enzyme) | 
3 |  | 22.2% | 41 pN | 35.4 pN | ΔCH2 YidC mutant (residues 399–415 deleted) (from UniProt P25714 1-548) (enzyme) | 
4 | 0.03 s⁻¹ | 48.7% | 47.6 pN | 29.5 pN | wild-type (wt) YidC insertase from E. coli (from UniProt P25714 1-548) (enzyme) | mean (un-)binding force [5]: 50.8 pN; bond lifetime at zero force (t0, Bell model) [6]: 0.32 s; fraction of force-time curves with interaction events [6]: 2 to 4%; koff [6]: 3.1 s⁻¹; lifetime of the bond (reciprocal of k0) [2]: 33 s; lifetime of the bond (reciprocal of k0) [1]: 0.5 s
5 | 0.07 s⁻¹ |  |  |  | ΔCH2 YidC mutant (residues 399–415 deleted) (from UniProt P25714 1-548) | 
6 |  |  |  |  | R366E YidC S405C labelled with Atto647N (enzyme, Atto647N (acceptor) on cysteine S405C in the cytoplasmic α-helical hairpin) MDSQRNLLVIALLFVSFMIWQAWEQDKNPQPQAQQTTQTTTTAAGSAADQGVPASGQGKLISVKTDVLDLTINTRGGDVEQALLPAYPKELNSTQPFQLLETSPQFIYQAQSGLTGRDGPDNPANGPRPLYNVEKDAYVLAEGQNELQVPMTYTDAAGNTFTKTFVLKRGDYAVNVNYNVQNAGEKPLEISSFGQLKQSITLPPHLDTGSSNFALHTFRGAAYSTPDEKYEKYKFDTIADNENLNISSKGGWVAMLQQYFATAWIPHNDGTNNFYTANLGNGIAAIGYKSQPVLVQPGQTGAMNSTLWVGPEIQDKMAAVAPHLDLTVDYGWLWFISQPLFKLLKWIHSFVGNWGFSIIIITFIVEGIMYPLTKAQYTSMAKMRMLQPKIQAMRERLGDDKQRICQEMMALYKAEKVNPLGGSFPLLIQMPIFLALYYMLMGSVELRQAPFALWIHDLSAQDPYYILPILMGVTMFFIQKMSPTTVTDPMQQKIMTFMPVIFTVFFLWFPSGLVLYYIVSNLVTIIQQQLIYRGLEKRGLHSREKKKS | FRET events relative to wt YidC within 360 s [7]: 25%
